Laboratory results published in the supplement of paper PMC10126150.
± gives the standard deviation of the averaged measurements.

System: ATP
Experiment: switch fluorescence ratio, 500 uM ATP over buffer (Cy3 cluster intensity, sum of 5 cycles each) (fold (ratio)); higher = stronger signal-on switching upon ATP binding; sequences stand for … in TCGTCGGCAGCGTCAGATGTGTATAAGAGACAGTTTTTTTTTTTTTTTTTTTTTTTTT…TC
Conditions: aptamer strand: ATP DNA aptamer (quencher-CACCTGGGGGAGTATTGCGGAGGAAGG + anchor), 100 nM annealed; ATP concentration: 500 uM
Method in brief: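 Switching-strand clusters labelled with Cy3 on a modified Illumina MiSeq flow-cell were annealed to 100 nM quencher-labelled ATP aptamer, imaged in selection buffer, and re-imaged after 15 min with 500 uM ATP at 22 °C. This was done over five cycles with NaOH stripping and re-annealing in between. The fluorescence ratio is summed target-cycle over summed buffer-cycle Cy3 intensity per cluster, averaged per switch-domain sequence, excluding clusters outside 100-1000 RFU.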
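Further: ATP exposure 15 min at 22 °C before imaging.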

| Sequence | switch fluorescence ratio |
| --- | --- |
| GCAAGACAAG | 1.05 ± 0.036 |
| GCAAGATTTC | 1.04 ± 0.013 |
| GCAAGGGGTG | 1.1 ± 0.065 |
| GCAAGTTCAA | 1.01 ± 0.031 |
| GCAATAATTT | 2.83 ± 0.52 |
| GCAATAGACT | 1.51 ± 0.04 |
| GCAATATGGG | 1.84 ± 0.2 |
| GCAATCAATA | 1.02 ± 0.015 |
| GCAATCAGAA | 1.04 ± 0.035 |
| GCAATCGAGT | 1.6 ± 0.04 |
| GCAATCTGGT | 1.11 ± 0.026 |
| GCAATTCCCG | 2.17 ± 0.049 |
| GCACCAAAAG | 0.973 ± 0.028 |
| GCACCAAGAA | 1.03 ± 0.014 |
| GCACGCGGCT | 1.02 ± 0.019 |
| GCACGGGCAT | 1.01 ± 0.035 |
| GCACGGGGAT | 1.02 ± 0.033 |
| GCACGTCGAA | 1.08 ± 0.032 |
| GCACTAGGGG | 1.09 ± 0.015 |
| GCACTATAGG | 0.999 ± 0.011 |
| GCACTTTTTG | 0.99 ± 0.049 |
| GCAGAAGTAC | 2.37 ± 0.075 |
| GCAGAGGAAC | 1.03 ± 0.012 |

| Sequence | switch fluorescence ratio |
| --- | --- |
| GCAGAGTGGA | 0.9976 ± 0.003 |
| GCAGATCGGT | 0.967 ± 0.019 |
| GCAGATCGTG | 1.02 ± 0.026 |
| GCAGATTACG | 1.01 ± 0.058 |
| GCAGCAAGCG | 1.64 ± 0.028 |
| GCAGCAGACG | 1.2 ± 0.076 |
| GCAGCAGCTT | 1.01 ± 0.039 |
| GCAGCCAAGC | 1.14 ± 0.028 |
| GCAGCTAGTA | 1.044 ± 0.0045 |
| GCAGCTGGTA | 1.05 ± 0.024 |
| GCAGCTGTAT | 1.08 ± 0.014 |
| GCAGGAATGT | 1.0036 ± 0.00065 |
| GCAGGAGCGG | 0.998 ± 0.0094 |
| GCAGGCGGGC | 0.991 ± 0.014 |
| GCAGGCGTCA | 1.04 ± 0.015 |
| GCAGGCGTTG | 0.995 ± 0.013 |
| GCAGGGAGTT | 0.966 ± 0.029 |
| GCAGGGGGAG | 1.02 ± 0.0081 |
| GCAGGGGTTA | 1.28 ± 0.43 |
| GCAGGGGTTG | 1.03 ± 0.071 |
| GCAGGTATTG | 1.02 ± 0.012 |
| GCAGGTGTGC | 1.13 ± 0.082 |
| GCAGTACGGC | 1.05 ± 0.033 |

| Sequence | switch fluorescence ratio |
| --- | --- |
| GCAGTCGCAA | 1.1 ± 0.043 |
| GCAGTCTGTG | 0.98 ± 0.03 |
| GCAGTGGGGT | 1.01 ± 0.022 |
| GCAGTGGGTC | 0.995 ± 0.0057 |
| GCAGTTATTT | 0.966 ± 0.026 |
| GCAGTTGGGG | 0.998 ± 0.032 |
| GCATAAATAG | 1.02 ± 0.018 |
| GCATAACATT | 1.01 ± 0.014 |
| GCATAAGAAA | 1.03 ± 0.018 |
| GCATAAGCTC | 1.06 ± 0.062 |
| GCATAAGGGC | 0.959 ± 0.033 |
| GCATATCTGT | 1.0296 ± 0.00023 |
| GCATCAGGAG | 1.05 ± 0.021 |
| GCATCCGGGA | 0.956 ± 0.039 |
| GCATGAAGGT | 1 ± 0.014 |
| GCATGAGCGG | 1.01 ± 0.013 |
| GCATGAGGAT | 1.01 ± 0.06 |
| GCATGAGGGA | 0.993 ± 0.019 |
| GCATGATCAA | 0.997 ± 0.031 |
| GCATGATGGG | 0.986 ± 0.043 |
| GCATGCGCTG | 0.982 ± 0.015 |
| GCATGCTGGT | 1.01 ± 0.024 |
| GCATGGCACC | 1.01 ± 0.025 |

| Sequence | switch fluorescence ratio |
| --- | --- |
| GCATGGGGAC | 1.05 ± 0.081 |
| GCATGGTTGG | 0.976 ± 0.034 |
| GCATGGTTTT | 0.975 ± 0.029 |
| GCATTAATG | 1.03 ± 0.021 |
| GCATTAGCTT | 1.007 ± 0.01 |
| GCATTAGGGG | 1.01 ± 0.016 |
| GCATTAGGTA | 0.984 ± 0.024 |
| GCATTGATGT | 1.02 ± 0.017 |
| GCATTGGTTC | 1.02 ± 0.042 |
| GCATTGTACG | 0.991 ± 0.03 |
| GCATTGTGCC | 1.02 ± 0.022 |
| GCATTTGAAG | 0.953 ± 0.05 |
| GCATTTGGGG | 0.9686 ± 0.0032 |
| GCATTTGTAC | 1.266 ± 0.0026 |
| GCATTTTTAT | 1.02 ± 0.037 |
| GCCAAGTTCG | 0.9787 ± 0.0072 |
| GCCACATTCA | 0.991 ± 0.017 |
| GCCACGGCGA | 1.02 ± 0.021 |
| GCCAGATGCG | 1.05 ± 0.064 |
| GCCAGATTAA | 0.976 ± 0.014 |
| GCCAGGCACT | 1.005 ± 0.0077 |
| GCCAGGGGGA | 1.09 ± 0.12 |
| GCCAGTAAGT | 0.994 ± 0.039 |

| Sequence | switch fluorescence ratio |
| --- | --- |
| GCCAGTAATA | 1.1 ± 0.034 |
| GCCAGTTGTC | 0.998 ± 0.041 |
| GCCATGGCGT | 1.02 ± 0.031 |
| GCCATGTCGA | 0.9921 ± 0.0061 |
| GCCATTGGGG | 0.9872 ± 0.0012 |
| GCCCAACTGT | 1 ± 0.036 |
| GCCCACGCTG | 1.02 ± 0.011 |
| GCCCCATTTT | 1.01 ± 0.024 |
| GCCCCTTAGG | 1.1 ± 0.045 |
| GCCCTATGTG | 1.25 ± 0.034 |
| GCCCTGGGGC | 1.013 ± 0.0075 |
| GCCCTGTATT | 1.015 ± 0.0048 |
| GCCCTTTTAA | 0.982 ± 0.016 |
| GCCGAACCTC | 1.28 ± 0.037 |
| GCCGAAGTCG | 1.02 ± 0.025 |
| GCCGACGGTG | 1 ± 0.019 |
| GCCGCGGGGT | 1 ± 0.0017 |
| GCCGCGTATA | 1.43 ± 0.058 |
| GCCGCGTATC | 1.65 ± 0.12 |
| GCCGCTGATG | 0.982 ± 0.028 |
| GCCGCTGGTG | 1.22 ± 0.077 |
| GCCGGAGGGA | 0.989 ± 0.038 |
| GCCGGCACTG | 1.002 ± 0.0064 |

| Sequence | switch fluorescence ratio |
| --- | --- |
| GCCGGCTTTG | 1.03 ± 0.026 |
| GCCGGGATGT | 1.02 ± 0.052 |
| GCCGGGCAGC | 0.98 ± 0.035 |
| GCCGGGGAGG | 0.984 ± 0.038 |
| GCCGGGGCAG | 1.01 ± 0.033 |
| GCCGGGGGGG | 1.02 ± 0.02 |
| GCCGGGGGTG | 1.04 ± 0.023 |
| GCCGGGTTAT | 1.03 ± 0.079 |
| GCCGTAACGG | 0.982 ± 0.014 |
| GCCGTAATGG | 1.24 ± 0.089 |
| GCCGTAATTA | 1.09 ± 0.017 |
| GCCGTCTGTG | 0.9728 ± 0.0039 |
| GCCGTGTGAT | 0.986 ± 0.0083 |
| GCCGTTGGGG | 0.99 ± 0.031 |
| GCCGTTTGTG | 1.008 ± 0.0024 |
| GCCGTTTTTT | 0.97 ± 0.04 |
| GCCTAAATGC | 1.44 ± 0.28 |
| GCCTAATGGT | 0.993 ± 0.016 |
| GCCTATGAGG | 0.993 ± 0.038 |
| GCCTATTGTT | 0.983 ± 0.02 |
| GCCTCAGGGT | 1.08 ± 0.02 |
| GCCTCCAGTT | 1.15 ± 0.025 |
| GCCTCTGGTG | 1.33 ± 0.035 |

| Sequence | switch fluorescence ratio |
| --- | --- |
| GCCTGAACTT | 1.03 ± 0.006 |
| GCCTGATACA | 1.02 ± 0.031 |
| GCCTGCCCCG | 1.69 ± 0.026 |
| GCCTGGACGA | 1.04 ± 0.018 |
| GCCTGGGAAG | 0.976 ± 0.036 |
| GCCTGGGGAA | 0.9844 ± 0.0087 |
| GCCTGGGTTC | 0.985 ± 0.02 |
| GCCTGGTTGT | 1.02 ± 0.013 |
| GCCTTGGGAA | 1.02 ± 0.028 |
| GCCTTGTGCA | 0.995 ± 0.017 |
| GCCTTTCTGA | 0.9855 ± 0.0061 |
| GCCTTTGTAA | 1.09 ± 0.056 |
| GCCTTTTGTT | 0.995 ± 0.027 |
| GCGAAAAAGA | 0.98 ± 0.031 |
| GCGAAAAATA | 1.0196 ± 0.00067 |
| GCGAAAGGGA | 1.02 ± 0.036 |
| GCGAACGGGG | 1.01 ± 0.049 |
| GCGAAGGTCA | 1.01 ± 0.012 |
| GCGACACACT | 1.47 ± 0.058 |
